Source: paper PMC10397247
Like-named read-outs stand apart in the source and are kept apart here. One block for each binder: values may come before it.

What was measured:
4H2691-bA = target: T1, 4H2691-bA; test: two-hybrid library CCNG1;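 also: natural log of median RNA to DNA barcode read ratio; higher means stronger binding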
T1 chain: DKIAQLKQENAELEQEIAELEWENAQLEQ

4H342-bA = target: T2, 4H342-bA; test: two-hybrid library CCNG1;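 also: natural log of median RNA to DNA barcode read ratio; higher means stronger binding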
T2 chain: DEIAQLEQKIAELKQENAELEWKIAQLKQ

4H953-bH = target: T3, 4H953-bH; test: two-hybrid library CCNG1;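 also: natural log of median RNA to DNA barcode read ratio; higher means stronger binding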
T3 chain: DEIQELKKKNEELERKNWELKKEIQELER

4H3632-bA = target: T4, 4H3632-bA; test: two-hybrid library CCNG1;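 also: natural log of median RNA to DNA barcode read ratio; higher means stronger binding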
T4 chain: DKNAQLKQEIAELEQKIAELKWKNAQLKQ

4H3070-bA = target: T5, 4H3070-bA; test: two-hybrid library CCNG1;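 also: natural log of median RNA to DNA barcode read ratio; higher means stronger binding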
T5 chain: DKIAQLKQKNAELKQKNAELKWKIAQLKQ

4H496-bA = target: T6, 4H496-bA; test: two-hybrid library CCNG1;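 also: natural log of median RNA to DNA barcode read ratio; higher means stronger binding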
T6 chain: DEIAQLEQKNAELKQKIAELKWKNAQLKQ

4H3414-AA = target: T7, 4H3414-AA; test: two-hybrid library CCmax; conditions: mean of both orientations
T7 chain: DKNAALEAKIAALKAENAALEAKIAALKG

4H324-AA = target: T8, 4H324-AA; test: two-hybrid library CCmax; conditions: mean of both orientations
T8 chain: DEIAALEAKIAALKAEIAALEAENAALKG

4H1558-AA = target: T9, 4H1558-AA; test: two-hybrid library CCmax; conditions: mean of both orientations
T9 chain: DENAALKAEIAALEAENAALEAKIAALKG

4H2728-AA = target: T10, 4H2728-AA; test: two-hybrid library CCmax; conditions: mean of both orientations
T10 chain: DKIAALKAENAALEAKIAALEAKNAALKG

4H2621-AA = target: T11, 4H2621-AA; test: two-hybrid library CCmax; conditions: mean of both orientations
T11 chain: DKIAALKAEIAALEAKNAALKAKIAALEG

4H3094-AA = target: T12, 4H3094-AA; test: two-hybrid library CCmax; conditions: mean of both orientations
T12 chain: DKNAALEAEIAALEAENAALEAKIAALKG

4H2903-AA = target: T13, 4H2903-AA; test: two-hybrid library CCmax; conditions: mean of both orientations
T13 chain: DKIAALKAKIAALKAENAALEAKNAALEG

4H3782-AA = target: T14, 4H3782-AA; test: two-hybrid library CCmax; conditions: mean of both orientations
T14 chain: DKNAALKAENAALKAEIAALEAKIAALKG

4H3969-AA = target: T15, 4H3969-AA; test: two-hybrid library CCmax; conditions: mean of both orientations
T15 chain: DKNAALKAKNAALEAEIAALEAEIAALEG

4H1913-AA = target: T16, 4H1913-AA; test: two-hybrid library CCmax; conditions: mean of both orientations
T16 chain: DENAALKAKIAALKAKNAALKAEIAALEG

4H3777-AA = target: T17, 4H3777-AA; test: two-hybrid library CCmax; conditions: mean of both orientations
T17 chain: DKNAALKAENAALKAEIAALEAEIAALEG

4H3595-AA = target: T18, 4H3595-AA; test: two-hybrid library CCmax; conditions: mean of both orientations
T18 chain: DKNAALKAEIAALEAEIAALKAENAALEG

4H2699-AA = target: T19, 4H2699-AA; test: two-hybrid library CCmax; conditions: mean of both orientations
T19 chain: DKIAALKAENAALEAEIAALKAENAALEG

4H2774-AA = target: T20, 4H2774-AA; test: two-hybrid library CCmax; conditions: mean of both orientations
T20 chain: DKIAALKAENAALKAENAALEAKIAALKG

4H1360-AA = target: T21, 4H1360-AA; test: two-hybrid library CCmax; conditions: mean of both orientations
T21 chain: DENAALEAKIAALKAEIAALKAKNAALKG

4H1449-AA = target: T22, 4H1449-AA; test: two-hybrid library CCmax; conditions: mean of both orientations
T22 chain: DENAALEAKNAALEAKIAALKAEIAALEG

4H2961-AA = target: T23, 4H2961-AA; test: two-hybrid library CCmax; conditions: mean of both orientations
T23 chain: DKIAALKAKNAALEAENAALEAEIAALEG

4H3049-AA = target: T24, 4H3049-AA; test: two-hybrid library CCmax; conditions: mean of both orientations
T24 chain: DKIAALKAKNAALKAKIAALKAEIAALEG

4H446-AA = target: T25, 4H446-AA; test: two-hybrid library CCmax; conditions: mean of both orientations
T25 chain: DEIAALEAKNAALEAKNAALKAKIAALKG

P2-AA-1HGe-A = target: T26, P2-AA-1HGe-A; test: two-hybrid library CCmax
T26 chain: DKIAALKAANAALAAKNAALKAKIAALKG

4H3939-AA = target: T27, 4H3939-AA; test: two-hybrid library CCmax; conditions: mean of both orientations
T27 chain: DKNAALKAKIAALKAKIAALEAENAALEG

4H1878-AA = target: T28, 4H1878-AA; test: two-hybrid library CCmax; conditions: mean of both orientations
T28 chain: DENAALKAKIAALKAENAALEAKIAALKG

4H3619-AA = target: T29, 4H3619-AA; test: two-hybrid library CCmax; conditions: mean of both orientations
T29 chain: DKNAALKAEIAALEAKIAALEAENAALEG

4H63-AA = target: T30, 4H63-AA; test: two-hybrid library CCmax; conditions: mean of both orientations
T30 chain: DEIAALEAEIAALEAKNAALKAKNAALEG

4H2604-AA = target: T31, 4H2604-AA; test: two-hybrid library CCmax; conditions: mean of both orientations
T31 chain: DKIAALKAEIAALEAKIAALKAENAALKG

4H235-AA = target: T32, 4H235-AA; test: two-hybrid library CCmax; conditions: mean of both orientations
T32 chain: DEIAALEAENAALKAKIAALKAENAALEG

4H3129-AA = target: T33, 4H3129-AA; test: two-hybrid library CCmax; conditions: mean of both orientations
T33 chain: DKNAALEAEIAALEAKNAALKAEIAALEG

4H3449-AA = target: T34, 4H3449-AA; test: two-hybrid library CCmax; conditions: mean of both orientations
T34 chain: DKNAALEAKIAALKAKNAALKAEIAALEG

4H3915-AA = target: T35, 4H3915-AA; test: two-hybrid library CCmax; conditions: mean of both orientations
T35 chain: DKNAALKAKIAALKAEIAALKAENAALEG

4H380-AA = target: T36, 4H380-AA; test: two-hybrid library CCmax; conditions: mean of both orientations
T36 chain: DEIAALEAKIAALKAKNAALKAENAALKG

4H341-AA = target: T37, 4H341-AA; test: two-hybrid library CCmax; conditions: mean of both orientations
T37 chain: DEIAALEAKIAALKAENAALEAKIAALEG

4H432-AA = target: T38, 4H432-AA; test: two-hybrid library CCmax; conditions: mean of both orientations
T38 chain: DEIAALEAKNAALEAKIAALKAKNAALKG

4H464-AA = target: T39, 4H464-AA; test: two-hybrid library CCmax; conditions: mean of both orientations
T39 chain: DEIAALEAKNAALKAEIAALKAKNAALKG

4H1454-AA = target: T40, 4H1454-AA; test: two-hybrid library CCmax; conditions: mean of both orientations
T40 chain: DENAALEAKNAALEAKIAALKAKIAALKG

4H483-AA = target: T41, 4H483-AA; test: two-hybrid library CCmax; conditions: mean of both orientations
T41 chain: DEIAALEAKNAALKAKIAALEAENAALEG

4H2760-AA = target: T42, 4H2760-AA; test: two-hybrid library CCmax; conditions: mean of both orientations
T42 chain: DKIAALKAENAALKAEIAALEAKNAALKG

4H3629-AA = target: T43, 4H3629-AA; test: two-hybrid library CCmax; conditions: mean of both orientations
T43 chain: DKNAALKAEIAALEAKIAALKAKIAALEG

4H1593-AA = target: T44, 4H1593-AA; test: two-hybrid library CCmax; conditions: mean of both orientations
T44 chain: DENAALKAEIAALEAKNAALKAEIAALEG

4H2947-AA = target: T45, 4H2947-AA; test: two-hybrid library CCmax; conditions: mean of both orientations
T45 chain: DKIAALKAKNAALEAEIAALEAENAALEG

4H249-AA = target: T46, 4H249-AA; test: two-hybrid library CCmax
T46 chain: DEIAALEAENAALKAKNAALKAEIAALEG

4H2580-AA = target: T47, 4H2580-AA; test: two-hybrid library CCmax; conditions: mean of both orientations
T47 chain: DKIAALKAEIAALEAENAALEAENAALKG

4H1384-AA = target: T48, 4H1384-AA; test: two-hybrid library CCmax
T48 chain: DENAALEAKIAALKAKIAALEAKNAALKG

4H3974-AA = target: T49, 4H3974-AA; test: two-hybrid library CCmax; conditions: mean of both orientations
T49 chain: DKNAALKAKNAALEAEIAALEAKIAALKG

interaction score (4H2691-bA): -1.17 | interaction score (4H342-bA): -0.443 | interaction score (4H953-bH): -0.501 | interaction score (4H3632-bA): -0.861 | interaction score (4H3070-bA): 0.439 | interaction score (4H496-bA): -3.04
Binder: DKIAQLKQENAELEQEIAELEWENAQLEQ [4H2691-bA]

interaction score (4H3414-AA): -0.92 | interaction score (4H324-AA): 1.84 | interaction score (4H1558-AA): -0.218 | interaction score (4H2728-AA): -1.04 | interaction score (4H2621-AA): 2.18 | interaction score (4H3094-AA): -0.703 | interaction score (4H2903-AA): -0.278 | interaction score (4H3782-AA): 0.414 | interaction score (4H3969-AA): -1.13 | interaction score (4H1913-AA): -0.124 | interaction score (4H3777-AA): -0.808 | interaction score (4H3595-AA): 1.05 | interaction score (4H2699-AA): -1.39 | interaction score (4H2774-AA): -2.01 | interaction score (4H1360-AA): 0.392 | interaction score (4H1449-AA): -0.154 | interaction score (4H2961-AA): -2.4 | interaction score (4H3049-AA): -0.0176 | interaction score (4H446-AA): -1.37 | interaction score (P2-AA-1HGe-A): -1.79 | interaction score (4H3939-AA): 0.491 | interaction score (4H1878-AA): -0.906 | interaction score (4H3619-AA): 0.504 | interaction score (4H63-AA): -0.724 | interaction score (4H2604-AA): 1.42 | interaction score (4H235-AA): -2.02 | interaction score (4H3129-AA): 0.123 | interaction score (4H3449-AA): -0.531 | interaction score (4H3915-AA): 0.312 | interaction score (4H380-AA): -0.754 | interaction score (4H341-AA): -0.142 | interaction score (4H432-AA): -1.21 | interaction score (4H464-AA): -0.554 | interaction score (4H1454-AA): -0.224 | interaction score (4H483-AA): -1.07 | interaction score (4H2760-AA): -0.562 | interaction score (4H3629-AA): 2.08 | interaction score (4H1593-AA): 0.813 | interaction score (4H2947-AA): -1.49 | interaction score (4H249-AA; mean of both orientations): -2.14 | interaction score (4H2580-AA): -0.799 | interaction score (4H1384-AA; mean of both orientations): 1.03 | interaction score (4H3974-AA): 0.171
Binder: DENAALEAKIAALKAEIAALEAKIAALEG [4H1349-AA]

interaction score (4H324-AA): 0.82 | interaction score (4H2621-AA): -0.862 | interaction score (4H3094-AA): -0.731 | interaction score (4H2903-AA): -0.437 | interaction score (4H3777-AA): 0.578 | interaction score (4H2774-AA): -1.81 | interaction score (4H1449-AA): -1.1 | interaction score (4H2961-AA): -1.37 | interaction score (4H3049-AA): -0.361 | interaction score (4H446-AA): -2.33 | interaction score (4H1878-AA): -1.08 | interaction score (4H3619-AA): 2.13 | interaction score (4H63-AA): -0.475 | interaction score (4H2604-AA): 1.45 | interaction score (4H235-AA): -1.3 | interaction score (4H3449-AA): -1.82 | interaction score (4H3915-AA): -0.264 | interaction score (4H380-AA): -1.4 | interaction score (4H341-AA): -0.177 | interaction score (4H432-AA): -1.33 | interaction score (4H2760-AA): -1.74 | interaction score (4H3629-AA): 0.973 | interaction score (4H1593-AA): -1.48 | interaction score (4H2947-AA): -1.05 | interaction score (4H249-AA): -1.81 | interaction score (4H2580-AA): 0.35 | interaction score (4H1384-AA): 0.25 | interaction score (4H3974-AA): 0.121
Binder: DENAALEAKIAALKAKIAALEAKNAALKG [4H1384-AA]
